In patent US20220144932A1:

Tests used:
[1] = molecular target: Recombinant FAM19A5 rabbit Fc fusion protein (human; rabbit) (UniProt Q7Z5A7); assay: flow cytometry, blocking: FAM19A5-rFc (1 µM) with scFv-Cκ (5 µM) on mouse primary glial cells; blocked: binding of FAM19A5-rFc to the cells
[2] = molecular target: Recombinant FAM19A5 rabbit Fc fusion protein (human; rabbit) (UniProt Q7Z5A7); assay: flow cytometry, blocking: FAM19A5-rFc (1 µM) with scFv-Cκ (5 µM) on human glioblastoma cell line U87MG; blocked: binding of FAM19A5-rFc to the cells

percent reduction of MFI [1]: 88.9% | percent reduction of MFI [2]: 69.6%
B1: 2-13 anti-FAM19A5 scFv human Cκ fusion protein (scFv, not shown: a dimerising Fc or GST)
scFv: ALTQPSSVSANPGETVKITCSGGSYSYGWFQQKSPGSALVTVIYWDDERPSDIPSRFSGALSGSTNTLTITGVQADDEAVYFCGTEDISGTAGVFGAGTTLTVLGQSSRSSGGGGSSGGGGSAVTLDESGGGLQTPGGALSLVCKASGFTFSSHGMFWVRQTPGKGLEYVAEITNDGSGTNYGSAVKGRATISRDNGQSTVRLQLNNLRAEDTGTYFCARSTYECPGGFSCWGDTGQIDAWGHGTEVIVSS
